Source: publication PMC7586219

Assays:
[1] = molecular target: Orbicella faveolata caspase-3b (Orbicella faveolata); test: SEC; Superdex75 Increase 10/300GL; protein 1-5 mg/ml, 200 ul loaded; 30 mM potassium phosphate, pH 7.5, 1 mM DTT; column calibrated with the LMW calibration kit; protomer to dimer
[2] = molecular target: Porites astreoides caspase-3 (Porites astreoides); test: as above

Row | stoichiometry N [1] | stoichiometry N [2] | Substance
1 | 2 |  | Orbicella faveolata caspase-3b (enzyme)
2 |  | 2 | Porites astreoides caspase-3 (enzyme)
